The supplement of paper PMC10567573

B1: LOXL2 (parent)
chain: YVEVKEGKTWKQICDKHWTAKNSR
B2: ZNF649 (parent)
chain: MTKAQESLTLEDVAVDFTWEEWQF
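Note: lentivirally expressed fusions sorted by FACS into six bins by GFP to DsRed ratio, PSI derived from sequencing read proportions per bin multiplied by bin number.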

Variants of: B1
Test: protein stability index of a GFP-peptide fusion (GPS, HEK-293T) (PSI 1-6); higher = more stable
Conditions: c terminus: a fixed tail appended
In the case of FVEVKEGKTWKQICDKHWTAKNSR, the protein stability index is reported as 3.57.
Work on AVEVKEGKTWKQICDKHWTAKNSR yielded a protein stability index of 3.4.
MVEVKEGKTWKQICDKHWTAKNSR gave a protein stability index of 3.49.
LVEVKEGKTWKQICDKHWTAKNSR gave a protein stability index of 3.34.
EVEVKEGKTWKQICDKHWTAKNSR showed a protein stability index of 3.46.
For NVEVKEGKTWKQICDKHWTAKNSR, the protein stability index was 3.93.
DVEVKEGKTWKQICDKHWTAKNSR gave a protein stability index of 3.52.
Variant KVEVKEGKTWKQICDKHWTAKNSR has a protein stability index of 3.84.
Variant RVEVKEGKTWKQICDKHWTAKNSR has a protein stability index of 3.12.
Variant SVEVKEGKTWKQICDKHWTAKNSR has a protein stability index of 3.71.
Variant GVEVKEGKTWKQICDKHWTAKNSR has a protein stability index of 3.72.
For QVEVKEGKTWKQICDKHWTAKNSR, the protein stability index was 3.58.
VVEVKEGKTWKQICDKHWTAKNSR showed a protein stability index of 3.4.
With HVEVKEGKTWKQICDKHWTAKNSR the protein stability index was 3.14.
With CVEVKEGKTWKQICDKHWTAKNSR the protein stability index was 3.36.
For IVEVKEGKTWKQICDKHWTAKNSR, the protein stability index was 2.68.
PVEVKEGKTWKQICDKHWTAKNSR showed a protein stability index of 3.68.
With TVEVKEGKTWKQICDKHWTAKNSR the protein stability index was 3.21.
For WVEVKEGKTWKQICDKHWTAKNSR, the protein stability index was 2.29.
Variant YVEHKEGKTWKQICDKHWTAKNSR has a protein stability index of 1.74.
In the case of YVECKEGKTWKQICDKHWTAKNSR, the protein stability index is reported as 2.22.
For YVEFKEGKTWKQICDKHWTAKNSR, the protein stability index was 2.36.
Variant YVEMKEGKTWKQICDKHWTAKNSR has a protein stability index of 1.82.
Variant YVEAKEGKTWKQICDKHWTAKNSR has a protein stability index of 2.73.
YVELKEGKTWKQICDKHWTAKNSR gave a protein stability index of 3.89.
YVEIKEGKTWKQICDKHWTAKNSR gave a protein stability index of 2.55.
Variant YVEQKEGKTWKQICDKHWTAKNSR has a protein stability index of 1.51.
With YVEGKEGKTWKQICDKHWTAKNSR the protein stability index was 2.86.
YVEKKEGKTWKQICDKHWTAKNSR showed a protein stability index of 2.03.
Work on YVERKEGKTWKQICDKHWTAKNSR yielded a protein stability index of 2.1.
YVEEKEGKTWKQICDKHWTAKNSR showed a protein stability index of 1.42.
In the case of YVEPKEGKTWKQICDKHWTAKNSR, the protein stability index is reported as 1.26.
In the case of YFEVKEGKTWKQICDKHWTAKNSR, the protein stability index is reported as 2.21.
YHEVKEGKTWKQICDKHWTAKNSR gave a protein stability index of 1.55.
Variant YGEVKEGKTWKQICDKHWTAKNSR has a protein stability index of 1.98.
For YREVKEGKTWKQICDKHWTAKNSR, the protein stability index was 3.03.
YAEVKEGKTWKQICDKHWTAKNSR gave a protein stability index of 1.78.
Work on YLEVKEGKTWKQICDKHWTAKNSR yielded a protein stability index of 2.72.
In the case of YTEVKEGKTWKQICDKHWTAKNSR, the protein stability index is reported as 2.22.
YEEVKEGKTWKQICDKHWTAKNSR gave a protein stability index of 3.7.
In the case of YQEVKEGKTWKQICDKHWTAKNSR, the protein stability index is reported as 2.16.
In the case of YCEVKEGKTWKQICDKHWTAKNSR, the protein stability index is reported as 2.09.
For YKEVKEGKTWKQICDKHWTAKNSR, the protein stability index was 3.
With YWEVKEGKTWKQICDKHWTAKNSR the protein stability index was 1.98.
YSEVKEGKTWKQICDKHWTAKNSR showed a protein stability index of 2.86.
YYEVKEGKTWKQICDKHWTAKNSR gave a protein stability index of 2.8.
For YDEVKEGKTWKQICDKHWTAKNSR, the protein stability index was 3.58.
For YPEVKEGKTWKQICDKHWTAKNSR, the protein stability index was 2.12.
With YIEVKEGKTWKQICDKHWTAKNSR the protein stability index was 2.66.
In the case of YMEVKEGKTWKQICDKHWTAKNSR, the protein stability index is reported as 2.96.
YNEVKEGKTWKQICDKHWTAKNSR gave a protein stability index of 3.69.
In the case of YVDVKEGKTWKQICDKHWTAKNSR, the protein stability index is reported as 2.63.
With YVAVKEGKTWKQICDKHWTAKNSR the protein stability index was 4.18.
YVVVKEGKTWKQICDKHWTAKNSR showed a protein stability index of 1.56.
YVNVKEGKTWKQICDKHWTAKNSR gave a protein stability index of 2.29.
Variant YVWVKEGKTWKQICDKHWTAKNSR has a protein stability index of 2.6.
Work on YVTVKEGKTWKQICDKHWTAKNSR yielded a protein stability index of 3.63.
YVRVKEGKTWKQICDKHWTAKNSR showed a protein stability index of 1.88.
Variant YVHVKEGKTWKQICDKHWTAKNSR has a protein stability index of 2.92.
YVGVKEGKTWKQICDKHWTAKNSR showed a protein stability index of 3.63.
Variant YVCVKEGKTWKQICDKHWTAKNSR has a protein stability index of 1.44.
YVLVKEGKTWKQICDKHWTAKNSR gave a protein stability index of 2.58.
Work on YVSVKEGKTWKQICDKHWTAKNSR yielded a protein stability index of 3.96.
With YVKVKEGKTWKQICDKHWTAKNSR the protein stability index was 2.68.
With YVFVKEGKTWKQICDKHWTAKNSR the protein stability index was 2.52.
YVYVKEGKTWKQICDKHWTAKNSR gave a protein stability index of 2.73.
With YVQVKEGKTWKQICDKHWTAKNSR the protein stability index was 1.95.
With YVIVKEGKTWKQICDKHWTAKNSR the protein stability index was 2.53.
YVMVKEGKTWKQICDKHWTAKNSR gave a protein stability index of 1.06.

Variants of: B2
Test: as above
Conditions: c terminus: a fixed tail appended
For MPKAQESLTLEDVAVDFTWEEWQF, the protein stability index was 3.66.
In the case of MHKAQESLTLEDVAVDFTWEEWQF, the protein stability index is reported as 2.88.
MNKAQESLTLEDVAVDFTWEEWQF showed a protein stability index of 3.62.
Variant MRKAQESLTLEDVAVDFTWEEWQF has a protein stability index of 2.72.
MTKAQESLTLEDVAVDFTSEEWQF gave a protein stability index of 4.29.
MTKAQESLTLEDVAVDFTNEEWQF gave a protein stability index of 4.37.
MTKAQESLTLEDVAVDFTPEEWQF showed a protein stability index of 4.43.
MTKAQESLTLEDVAVDFTDEEWQF showed a protein stability index of 4.65.
In the case of MTKAQESLTLEDVAVDFTTEEWQF, the protein stability index is reported as 4.07.
For MTKAQESLTLEDVAVDFTWEEQQF, the protein stability index was 4.16.
MTKAQESLTLEDVAVDFTWEEMQF showed a protein stability index of 3.72.
With MTKAQESLTLEDVAVDFTWEEPQF the protein stability index was 4.4.
Variant MTKAQESLTLEDVAEDFTWEEWQF has a protein stability index of 3.94.
MTKAQESLTLEDVAFDFTWEEWQF showed a protein stability index of 2.48.
With MTKAQESLTLEDVADDFTWEEWQF the protein stability index was 3.77.
Work on MTKAQESLTLEDVALDFTWEEWQF yielded a protein stability index of 2.56.
With MTKAQESLTLEDVAADFTWEEWQF the protein stability index was 3.92.
Variant MTKAIESLTLEDVAVDFTWEEWQF has a protein stability index of 3.02.
MTKAYESLTLEDVAVDFTWEEWQF gave a protein stability index of 2.32.
Work on MTKANESLTLEDVAVDFTWEEWQF yielded a protein stability index of 3.33.
MTKAAESLTLEDVAVDFTWEEWQF showed a protein stability index of 3.02.
MTKAVESLTLEDVAVDFTWEEWQF gave a protein stability index of 3.37.
Work on MTKALESLTLEDVAVDFTWEEWQF yielded a protein stability index of 2.97.
Variant MTKAQESLTLEDVAVDFTWEEWQN has a protein stability index of 4.35.
In the case of MTKAQESLTLEDVAVDFTWEEWQH, the protein stability index is reported as 4.01.
